{"source": "paper doi:10.1101/2022.11.05.515281v1", "proteins": {"B1": {"name": "MSMEG_2027 (Mycolicibacterium smegmatis MC2 155) (protein)", "chain": "MTDAELSPTDWVREQTERILEQGTTDGVHVLDRPIVLFTTTGAKSGKKRYVPLMRVEENGKYAMVASKGGDPKHPSWYFNVKANPTVSVQDGDKVLPDRTARELEGEEREHWWKLAVEAYPPYAEYQTKTDRLIPVFIVE"}, "B2": {"name": "MSMEG_2850 (Mycolicibacterium smegmatis MC2 155) (protein)", "chain": "MTEAIDWDQMNNQVIKEFRETGGKAGGLFEGSPLVLVHHTGAKSGKQRIAPLVPLLDGDRIYIFGSKGGADSHPDWYHNLVANPDTVVELGTETFPVKARVLTGAERDEIYAKQVAVAPQFGDYQRKTTRVIPVVELQRV"}}, "assay_in_all_cases": "purified protein, by the assay type", "key": {"[1]": {"substrate": "C=C(C)[C@H]1CC=C(C)C(=O)C1"}, "[2]": {"substrate": "CC1=CC(=O)[C@H]2C[C@@H]1C2(C)C"}, "[3]": {"substrate": "CC1=CCCC1=O"}, "[4]": {"substrate": "CC1=CC(=O)CC(C)(C)C1=O"}, "[5]": {"substrate": "O=[N+]([O-])C1=CCCCC1"}, "[6]": {"substrate": "CC1=CC(=O)CC1"}, "[7]": {"substrate": "COC(=O)C1=CCCCC1"}}, "data": [{"protein": "B1", "values": [{"measurement": "Km", "setting": "[1]", "result": "3099 ± 916.4", "unit": "µM"}, {"measurement": "kcat", "setting": "[1]", "result": "0.12 ± 0.0114", "unit": "s⁻¹"}, {"measurement": "kcat/Km", "setting": "[1]", "result": "38.7 ± 8.62", "unit": "M⁻¹ s⁻¹"}, {"measurement": "Km", "setting": "[2]", "result": "2583 ± 667.2", "unit": "µM"}, {"measurement": "kcat", "setting": "[2]", "result": "0.048 ± 0.0049", "unit": "s⁻¹"}, {"measurement": "kcat/Km", "setting": "[2]", "result": "18.6 ± 3.22", "unit": "M⁻¹ s⁻¹"}, {"measurement": "Km", "setting": "[3]", "result": "1514 ± 111", "unit": "µM"}, {"measurement": "kcat", "setting": "[3]", "result": "0.783 ± 0.0157", "unit": "s⁻¹"}, {"measurement": "kcat/Km", "setting": "[3]", "result": "517 ± 30.8", "unit": "M⁻¹ s⁻¹"}, {"measurement": "Km", "setting": "[4]", "result": "4550 ± 360.6", "unit": "µM"}, {"measurement": "kcat", "setting": "[4]", "result": "0.459 ± 0.013", "unit": "s⁻¹"}, {"measurement": "kcat/Km", "setting": "[4]", "result": "101 ± 5.7", "unit": "M⁻¹ s⁻¹"}]}, {"protein": "B2", "values": [{"measurement": "Km", "setting": "[5]", "result": "1739 ± 136.9", "unit": "µM"}, {"measurement": "kcat", "setting": "[5]", "result": "1.07 ± 0.0295", "unit": "s⁻¹"}, {"measurement": "kcat/Km", "setting": "[5]", "result": "617 ± 35", "unit": "M⁻¹ s⁻¹"}, {"measurement": "Km", "setting": "[6]", "result": "862 ± 508", "unit": "µM"}, {"measurement": "kcat", "setting": "[6]", "result": "0.018 ± 0.0026", "unit": "s⁻¹"}, {"measurement": "kcat/Km", "setting": "[6]", "result": "21 ± 10.5", "unit": "M⁻¹ s⁻¹"}, {"measurement": "Km", "setting": "[7]", "result": "4355 ± 312.6", "unit": "µM"}, {"measurement": "kcat", "setting": "[7]", "result": "0.279 ± 0.0071", "unit": "s⁻¹"}, {"measurement": "kcat/Km", "setting": "[7]", "result": "64.1 ± 3.29", "unit": "M⁻¹ s⁻¹"}]}]}
